We go through three variants from article PMC3751566.

The chains are these.
B1: Protein-tyrosine phosphatase 1B wild type [not stated] / Munc18c (endogenous) [mouse (endogenous in 3T3-L1 and PTP1B KO adipocytes)] (parent)
chain 1: MEMEKEFEQIDKSGSWAAIYQDIRHEASDFPCRVAKLPKNKNRNRYRDVSPFDHSRIKLHQEDNDYINASLIKMEEAQRSYILTQGPLPNTCGHFWEMVWEQKSRGVVMLNRVMEKGSLKCAQYWPQKEEKEMIFEDTNLKLTLISEDIKSYYTVRQLELENLTTQETREILHFHYTTWPDFGVPESPASFLNFLFKVRESGSLSPEHGPVVVHCSAGIGRSGTFCLADTCLLLMDKRKDPSSVDIKKVLLEMRKFRMGLIQTADQLRFSYLAVIEGAKFIMGDSSVQDQWKELSHEDLEPPPEHIPPPPRPPKRILEPHNGKCREFFPNHQWVKEETQEDKDCPIKEEKGSPLNAAPYGIESMSQDTEVRSRVVGGSLRGAQAASPAKGEPSLPEKDEDHALSYWKPFLVNMCVATVLTAGAYLCYRFLFNSNT
chain 2: MAPPVSERGLKSVVWRKIKTAVFDDCRKEGEWKIMLLDEFTTKLLSSCCKMTDLLEEGITVIENIYKNREPVRQMKALYFISPTPKSVDCFLRDFGSKSEKKYKAAYIYFTDFCPDSLFNKIKASCSKSIRRCKEINISFIPQESQVYTLDVPDAFYYCYSPDPSNASRKEVVMEAMAEQIVTVCATLDENPGVRYKSKPLDNASKLAQLVEKKLEDYYKIDEKGLIKGKTQSQLLIIDRGFDPVSTVLHELTFQAMAYDLLPIENDTYKYKTDGKEKEAVLEEDDDLWVRVRHRHIAVVLEEIPKLMKEISSTKKATEGKTSLSALTQLMKKMPHFRKQISKQVVHLNLAEDCMNKFKLNIEKLCKTEQDLALGTDAEGQRVKDSMLVLLPVLLNKNHDNCDKIRAVLLYIFGINGTTEENLDRLIHNVKIEDDSDMIRNWSHLGVPIVPPSQQAKPLRKDRSAEETFQLSRWTPFIKDIMEDAIDNRLDSKEWPYCSRCPAVWNGSGAVSARQKPRTNYLELDRKNGSRLIIFVIGGITYSEMRCAYEVSQAHKSCEVIIGSTHILTPRKLLDDIKMLNKSKDKVSFKDE
B2: Munc18c (endogenous) [mouse (endogenous in 3T3-L1 and PTP1B KO adipocytes)] / Protein-tyrosine phosphatase 1B substrate-trapping [not stated] (parent)
chain 1: B1 chain 2
chain 2: B1 chain 1 with D181A

Positions count from the first letter of the chain named.

The variants in the first test derive from B1. Kind of test: co-immunoprecipitation (IP PTP1B with FG6, IB Munc18c), band quantification. The following applies: with Munc18c (endogenous) [mouse (endogenous in 3T3-L1 and PTP1B KO adipocytes)]; 3T3-L1 WT adipocytes, + insulin + Vanadate; read off a plot.
As to chain 1 D181A, the response (relative to WT) was determined as 0.83.

Still in this test, the particulars now being: with Munc18c (endogenous) [mouse (endogenous in 3T3-L1 and PTP1B KO adipocytes)]; 3T3-L1 WT adipocytes, + insulin, NP40 lysis; read off a plot.
As for chain 1 D181A, the response (relative to WT) amounted to 2.2.

Still in this test, the particulars now being: with Munc18c (endogenous) [mouse (endogenous in 3T3-L1 and PTP1B KO adipocytes)]; 3T3-L1 WT adipocytes, - insulin, NP40 lysis; read off a plot.
Consider chain 1 D181A, for which the response (relative to WT) was 1.4.

The variants in a further test derive from B2. The test is described as above. As to conditions: with Protein-tyrosine phosphatase 1B substrate-trapping mutant D181A; Munc18c knockdown 3T3-L1 cells reconstituted with Y521F, transfected with PTP1B D/A, + insulin; read off a plot.
As to chain 1 MAPPVSERGLKSVVWRKIKTAVFDDCRKEGEWKIMLLDEFTTKLLSSCCKMTDLLEEGITVIENIYKNREPVRQMKALYFISPTPKSVDCFLRDFGSKSEKKYKAAYIYFTDFCPDSLFNKIKASCSKSIRRCKEINISFIPQESQVYTLDVPDAFYYCYSPDPSNASRKEVVMEAMAEQIVTVCATLDENPGVRYKSKPLDNASKLAQLVEKKLEDYYKIDEKGLIKGKTQSQLLIIDRGFDPVSTVLHELTFQAMAYDLLPIENDTYKYKTDGKEKEAVLEEDDDLWVRVRHRHIAVVLEEIPKLMKEISSTKKATEGKTSLSALTQLMKKMPHFRKQISKQVVHLNLAEDCMNKFKLNIEKLCKTEQDLALGTDAEGQRVKDSMLVLLPVLLNKNHDNCDKIRAVLLYIFGINGTTEENLDRLIHNVKIEDDSDMIRNWSHLGVPIVPPSQQAKPLRKDRSAEETFQLSRWTPFIKDIMEDAIDNRLDSKEWPYCSRCPAVWNGSGAVSARQKPRTNFLELDRKNGSRLIIFVIGGITYSEMRCAYEVSQAHKSCEVIIGSTHILTPRKLLDDIKMLNKSKDKVSFKDE [chain 1 Y521F], the response (relative to WT) is 0.93.

The same test, now with this note: with Protein-tyrosine phosphatase 1B substrate-trapping mutant D181A; Munc18c knockdown 3T3-L1 cells reconstituted with Y521F, transfected with PTP1B D/A, - insulin; read off a plot.
For chain 1 MAPPVSERGLKSVVWRKIKTAVFDDCRKEGEWKIMLLDEFTTKLLSSCCKMTDLLEEGITVIENIYKNREPVRQMKALYFISPTPKSVDCFLRDFGSKSEKKYKAAYIYFTDFCPDSLFNKIKASCSKSIRRCKEINISFIPQESQVYTLDVPDAFYYCYSPDPSNASRKEVVMEAMAEQIVTVCATLDENPGVRYKSKPLDNASKLAQLVEKKLEDYYKIDEKGLIKGKTQSQLLIIDRGFDPVSTVLHELTFQAMAYDLLPIENDTYKYKTDGKEKEAVLEEDDDLWVRVRHRHIAVVLEEIPKLMKEISSTKKATEGKTSLSALTQLMKKMPHFRKQISKQVVHLNLAEDCMNKFKLNIEKLCKTEQDLALGTDAEGQRVKDSMLVLLPVLLNKNHDNCDKIRAVLLYIFGINGTTEENLDRLIHNVKIEDDSDMIRNWSHLGVPIVPPSQQAKPLRKDRSAEETFQLSRWTPFIKDIMEDAIDNRLDSKEWPYCSRCPAVWNGSGAVSARQKPRTNFLELDRKNGSRLIIFVIGGITYSEMRCAYEVSQAHKSCEVIIGSTHILTPRKLLDDIKMLNKSKDKVSFKDE [chain 1 Y521F], the response (relative to WT) is 0.38.

The test is the same for the next values; noted with them: with Protein-tyrosine phosphatase 1B substrate-trapping mutant D181A; Munc18c knockdown 3T3-L1 cells reconstituted with Y218/219F, transfected with PTP1B D/A, + insulin; read off a plot.
On to chain 1 MAPPVSERGLKSVVWRKIKTAVFDDCRKEGEWKIMLLDEFTTKLLSSCCKMTDLLEEGITVIENIYKNREPVRQMKALYFISPTPKSVDCFLRDFGSKSEKKYKAAYIYFTDFCPDSLFNKIKASCSKSIRRCKEINISFIPQESQVYTLDVPDAFYYCYSPDPSNASRKEVVMEAMAEQIVTVCATLDENPGVRYKSKPLDNASKLAQLVEKKLEDFFKIDEKGLIKGKTQSQLLIIDRGFDPVSTVLHELTFQAMAYDLLPIENDTYKYKTDGKEKEAVLEEDDDLWVRVRHRHIAVVLEEIPKLMKEISSTKKATEGKTSLSALTQLMKKMPHFRKQISKQVVHLNLAEDCMNKFKLNIEKLCKTEQDLALGTDAEGQRVKDSMLVLLPVLLNKNHDNCDKIRAVLLYIFGINGTTEENLDRLIHNVKIEDDSDMIRNWSHLGVPIVPPSQQAKPLRKDRSAEETFQLSRWTPFIKDIMEDAIDNRLDSKEWPYCSRCPAVWNGSGAVSARQKPRTNYLELDRKNGSRLIIFVIGGITYSEMRCAYEVSQAHKSCEVIIGSTHILTPRKLLDDIKMLNKSKDKVSFKDE [chain 1 Y218F Y219F], for which the response (relative to WT) was determined as 0.87.

Staying with this test, now noted: with Protein-tyrosine phosphatase 1B substrate-trapping mutant D181A; Munc18c knockdown 3T3-L1 cells reconstituted with Y218/219F, transfected with PTP1B D/A, - insulin; read off a plot.
As for chain 1 MAPPVSERGLKSVVWRKIKTAVFDDCRKEGEWKIMLLDEFTTKLLSSCCKMTDLLEEGITVIENIYKNREPVRQMKALYFISPTPKSVDCFLRDFGSKSEKKYKAAYIYFTDFCPDSLFNKIKASCSKSIRRCKEINISFIPQESQVYTLDVPDAFYYCYSPDPSNASRKEVVMEAMAEQIVTVCATLDENPGVRYKSKPLDNASKLAQLVEKKLEDFFKIDEKGLIKGKTQSQLLIIDRGFDPVSTVLHELTFQAMAYDLLPIENDTYKYKTDGKEKEAVLEEDDDLWVRVRHRHIAVVLEEIPKLMKEISSTKKATEGKTSLSALTQLMKKMPHFRKQISKQVVHLNLAEDCMNKFKLNIEKLCKTEQDLALGTDAEGQRVKDSMLVLLPVLLNKNHDNCDKIRAVLLYIFGINGTTEENLDRLIHNVKIEDDSDMIRNWSHLGVPIVPPSQQAKPLRKDRSAEETFQLSRWTPFIKDIMEDAIDNRLDSKEWPYCSRCPAVWNGSGAVSARQKPRTNYLELDRKNGSRLIIFVIGGITYSEMRCAYEVSQAHKSCEVIIGSTHILTPRKLLDDIKMLNKSKDKVSFKDE [chain 1 Y218F Y219F], the response (relative to WT) amounted to 0.4.
